Laboratory results: doi:10.1101/2020.12.08.415968 (bioRxiv, 2020)

Target: T1, SiRHP (sulfite reductase hemoprotein, full length, hydrogenated) (Escherichia coli, UniProt P17846 1-570)
T1 sequence (looked up): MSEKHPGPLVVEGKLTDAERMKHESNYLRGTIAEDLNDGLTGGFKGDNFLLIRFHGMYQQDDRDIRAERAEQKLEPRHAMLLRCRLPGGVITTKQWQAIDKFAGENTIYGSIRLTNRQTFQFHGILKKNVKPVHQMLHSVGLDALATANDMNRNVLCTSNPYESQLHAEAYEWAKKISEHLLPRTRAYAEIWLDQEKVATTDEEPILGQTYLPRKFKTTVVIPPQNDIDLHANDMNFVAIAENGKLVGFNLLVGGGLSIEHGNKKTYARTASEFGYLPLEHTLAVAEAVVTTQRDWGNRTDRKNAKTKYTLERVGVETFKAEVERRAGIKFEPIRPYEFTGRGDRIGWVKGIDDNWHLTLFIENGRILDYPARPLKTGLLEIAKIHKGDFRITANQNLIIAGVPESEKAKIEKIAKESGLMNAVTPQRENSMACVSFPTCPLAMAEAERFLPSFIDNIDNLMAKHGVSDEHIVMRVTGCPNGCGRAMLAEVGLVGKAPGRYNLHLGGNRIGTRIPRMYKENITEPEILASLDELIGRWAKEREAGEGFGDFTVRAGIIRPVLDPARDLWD
Assay: AUC

B1: SiRFP-60 (monomeric 60 kDa sulfite reductase flavoprotein, 52 N-terminal amino acids removed) (domain or fragment, Escherichia coli, UniProt P38038 53-599, looked up)
chain: ATPAPAAEMPGITIISASQTGNARRVAEALRDDLLAAKLNVKLVNAGDYKFKQIASEKLLIVVTSTQGEGEPPEEAVALHKFLFSKKAPKLENTAFAVFSLGDSSYEFFCQSGKDFDSKLAELGGERLLDRVDADVEYQAAASEWRARVVDALKSRAPVAAPSQSVATGAVNEIHTSPYSKDAPLVASLSVNQKITGRNSEKDVRHIEIDLGDSGMRYQPGDALGVWYQNDPALVKELVELLWLKGDEPVTVEGKTLPLNEALQWHFELTVNTANIVENYATLTRSETLLPLVGDKAKLQHYAATTPIVDMVRFSPAQLDAEALINLLRPLTPRLYSIASSQAEVENEVHVTVGVVRYDVEGRARAGGASSFLADRVEEEGEVRVFIEHNDNFRLPANPETPVIMIGPGTGIAPFRAFMQQRAADEAPGKNWLFFGNPHFTEDFLYQVEWQRYVKDGVLTRIDLAWSRDQKEKVYVQDKLREQGAELWRWINDGAHIYVCGDANRMAKDVEQALLEVIAEFGGMDTEAADEFLSELRVERRYQRDVY
B1: binds.
